The text below walks through data of paper PMC3865722 (2014).

What all share (experiment): competitive inhibition of Tra2β
Assay [1] concerns the target T1, Tra2β(ΔN/RS2) RRM and N-terminal half of C-terminal RS domain (Homo sapiens, UniProt P62995).
T1 chain: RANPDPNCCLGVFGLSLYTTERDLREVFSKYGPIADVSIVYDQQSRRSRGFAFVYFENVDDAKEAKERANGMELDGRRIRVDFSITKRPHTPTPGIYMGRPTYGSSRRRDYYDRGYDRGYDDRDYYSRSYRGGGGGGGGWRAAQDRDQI

In assay [2] the target is T2, Tra2β(ΔN/RRM) C-terminal RS domain (Homo sapiens, UniProt P62995).
T2 chain: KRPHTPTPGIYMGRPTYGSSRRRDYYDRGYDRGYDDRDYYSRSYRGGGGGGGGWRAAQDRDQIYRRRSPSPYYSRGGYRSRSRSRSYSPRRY

The next assay addresses T3, Tra2β(ΔN) 114-288 (Homo sapiens, UniProt P62995).
T3 chain: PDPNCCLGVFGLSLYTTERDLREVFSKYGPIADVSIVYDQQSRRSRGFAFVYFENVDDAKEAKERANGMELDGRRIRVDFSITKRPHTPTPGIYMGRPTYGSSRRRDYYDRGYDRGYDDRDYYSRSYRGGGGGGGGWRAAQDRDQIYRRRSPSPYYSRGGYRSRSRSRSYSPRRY

B1: SRPK1 (protein)
chain: MERKVLALQARKKRTKAKKDKAQRKSETQHRGSAPHSESDLPEQEEEILGSDDDEQEDPNDYCKGGYHLVKIGDLFNGRYHVIRKLGWGHFSTVWLSWDIQGKKFVAMKVVKSAEHYTETALDEIRLLKSVRNSDPNDPNREMVVQLLDDFKISGVNGTHICMVFEVLGHHLLKWIIKSNYQGLPLPCVKKIIQQVLQGLDYLHTKCRIIHTDIKPENILLSVNEQYIRRLAAEATEWQRSGAPPPSGSAVSTAPQPKPADKMSKNKKKKLKKKQKRQAELLEKRMQEIEEMEKESGPGQKRPNKQEESESPVERPLKENPPNKMTQEKLEESSTIGQDQTLMERDTEGGAAEINCNGVIEVINYTQNSNNETLRHKEDLHNANDCDVQNLNQESSFLSSQNGDSSTSQETDSCTPITSEVSDTMVCQSSSTVGQSFSEQHISQLQESIRAEIPCEDEQEQEHNGPLDNKGKSTAGNFLVNPLEPKNAEKLKVKIADLGNACWVHKHFTEDIQTRQYRSLEVLIGSGYNTPADIWSTACMAFELATGDYLFEPHSGEEYTRDEDHIALIIELLGKVPRKLIVAGKYSKEFFTKKGDLKHITKLKPWGLFEVLVEKYEWSQEEAAGFTDFLLPMLELIPEKRATAAECLRHPWLNS
Broadly, the Ki is a dissociation constant, usually derived from enzyme kinetics or from competition with a known ligand. Low readings indicate tighter binding, high ones weaker binding. As for B1, the inhibition constant Ki in assay [1] is 180 nM; in assay [2], 45 nM; with Tra2β(ΔN) 114-288, 11 nM.
